In PMC6093710, “The Peptidisc, a simple method for stabilizing membrane proteins in detergent-free solution” (eLife, 2018):
No end group written: not given here.

Tests used:
Conditions in all cases: both partners purified
[1] = biological target: Photosynthetic bacterial reaction center (BRC) from Rhodobacter sphaeroides, His-tagged (Rhodobacter sphaeroides, UniProt P0C0Y8 1-282; P0C0Y9 1-308; P0C0Y7 1-260); assay: SDS-PAGE densitometry of gel-filtered peptidiscs; peptidiscs made on-column, one more gel filtration to remove free NSPr; 15% SDS-PAGE, Coomassie fluorescence of the NSPr band against a standard curve of NSPr; triplicate gels
[2] = biological target: T1, MalFGK2 ABC transporter (maltose transporter), His-tagged (UniProt P02916 1-514; P68183 1-296; P68187 1-371); assay: as above
T1 construct: also called MalGFK2

[3] = biological target: T2, FhuA receptor, His-tagged (UniProt P06971 34-747); assay: streptavidin blot quantification of biotinylated peptide in gel-filtered peptidiscs; FhuA reconstituted with NSPrbio; western blot with streptavidin-Alexa 680, against a standard curve
T2 construct: also called FhuA transporter
T2 sequence (looked up): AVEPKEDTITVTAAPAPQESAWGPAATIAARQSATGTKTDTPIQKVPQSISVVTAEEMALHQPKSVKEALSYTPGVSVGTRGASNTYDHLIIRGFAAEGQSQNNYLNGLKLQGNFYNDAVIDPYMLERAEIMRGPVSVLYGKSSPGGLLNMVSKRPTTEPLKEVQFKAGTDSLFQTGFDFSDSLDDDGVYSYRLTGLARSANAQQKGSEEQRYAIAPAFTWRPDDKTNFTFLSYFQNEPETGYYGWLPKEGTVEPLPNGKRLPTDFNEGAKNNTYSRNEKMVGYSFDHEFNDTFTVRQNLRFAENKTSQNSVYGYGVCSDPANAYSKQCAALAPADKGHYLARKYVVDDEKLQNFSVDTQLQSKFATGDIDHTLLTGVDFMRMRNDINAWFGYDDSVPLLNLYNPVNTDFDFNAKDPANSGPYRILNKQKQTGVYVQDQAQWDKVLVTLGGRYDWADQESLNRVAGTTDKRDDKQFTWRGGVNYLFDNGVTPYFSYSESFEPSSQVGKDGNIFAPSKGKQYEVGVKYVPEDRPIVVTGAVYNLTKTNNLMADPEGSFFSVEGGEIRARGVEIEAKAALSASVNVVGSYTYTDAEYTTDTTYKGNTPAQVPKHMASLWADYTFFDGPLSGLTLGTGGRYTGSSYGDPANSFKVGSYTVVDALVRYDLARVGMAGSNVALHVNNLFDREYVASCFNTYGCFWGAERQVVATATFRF

[4] = biological target: T3, Colicin M, His-tagged (UniProt P05820 1-271); assay: native gel or EMSA; about 2 µg FhuA in peptidisc incubated with TonB23-329 (2 µg) or ColM (5 µg), with or without ferricrocin, 5 min at room temperature; CN-PAGE, Coomassie; free TonB and ColM do not migrate
T3 construct: colicin M; Construct as in Mills et al., 2014; also called ColM; source: E. coli BW25113, plasmid pMLD189, purified
T3 sequence: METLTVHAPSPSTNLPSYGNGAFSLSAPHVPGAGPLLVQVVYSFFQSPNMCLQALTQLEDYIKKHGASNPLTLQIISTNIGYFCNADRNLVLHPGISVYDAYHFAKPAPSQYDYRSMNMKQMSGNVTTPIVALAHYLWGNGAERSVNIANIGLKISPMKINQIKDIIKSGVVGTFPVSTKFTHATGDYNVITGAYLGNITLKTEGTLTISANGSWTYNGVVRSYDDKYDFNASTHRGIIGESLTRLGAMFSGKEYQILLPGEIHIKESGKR

T1 sequence (P02916 whole entry, chain 1 of 3): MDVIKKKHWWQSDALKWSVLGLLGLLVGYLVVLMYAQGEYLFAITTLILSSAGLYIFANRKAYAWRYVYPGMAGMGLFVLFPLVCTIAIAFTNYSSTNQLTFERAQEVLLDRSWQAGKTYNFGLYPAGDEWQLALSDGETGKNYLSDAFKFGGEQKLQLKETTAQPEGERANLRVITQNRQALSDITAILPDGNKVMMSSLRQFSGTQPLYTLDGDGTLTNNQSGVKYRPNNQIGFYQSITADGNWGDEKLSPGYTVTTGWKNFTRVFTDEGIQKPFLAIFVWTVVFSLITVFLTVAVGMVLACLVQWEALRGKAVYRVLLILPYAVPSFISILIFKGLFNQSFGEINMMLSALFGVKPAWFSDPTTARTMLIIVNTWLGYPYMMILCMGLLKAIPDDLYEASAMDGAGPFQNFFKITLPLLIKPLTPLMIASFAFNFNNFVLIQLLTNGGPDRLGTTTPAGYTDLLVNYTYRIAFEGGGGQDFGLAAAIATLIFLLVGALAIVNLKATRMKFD
T1 sequence (P68183 whole entry, chain 2 of 3): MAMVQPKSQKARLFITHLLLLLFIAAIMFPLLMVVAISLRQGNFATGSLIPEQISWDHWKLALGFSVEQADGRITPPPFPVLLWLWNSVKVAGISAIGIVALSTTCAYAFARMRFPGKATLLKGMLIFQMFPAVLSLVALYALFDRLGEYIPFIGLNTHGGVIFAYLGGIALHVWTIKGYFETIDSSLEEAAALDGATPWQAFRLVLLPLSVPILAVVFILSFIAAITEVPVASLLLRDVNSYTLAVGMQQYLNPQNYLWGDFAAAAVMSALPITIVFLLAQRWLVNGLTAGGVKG
T1 sequence (P68187 whole entry, chain 3 of 3): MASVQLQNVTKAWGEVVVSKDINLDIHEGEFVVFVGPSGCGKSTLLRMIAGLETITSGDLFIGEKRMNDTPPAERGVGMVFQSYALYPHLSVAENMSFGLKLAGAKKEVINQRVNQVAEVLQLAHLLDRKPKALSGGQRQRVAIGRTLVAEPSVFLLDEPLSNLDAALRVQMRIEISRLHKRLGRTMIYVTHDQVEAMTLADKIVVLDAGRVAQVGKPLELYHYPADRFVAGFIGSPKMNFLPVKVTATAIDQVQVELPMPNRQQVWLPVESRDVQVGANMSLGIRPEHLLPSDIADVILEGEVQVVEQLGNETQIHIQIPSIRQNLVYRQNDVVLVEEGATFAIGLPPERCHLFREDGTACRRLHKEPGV

B1: Peptide NSPr (reversed nanodisc scaffold peptide, peptidisc scaffold) (peptide)
peptide: FAEKFKEAVKDYFAKFWDPAAEKLKEAVKDYFAKLWD
notes: also called NSP (used loosely in some legends and methods); source: synthetic peptide; bought: A+ peptide Co. Ltd. and Genscript (purity >80%)
stoichiometry N [1]: 9 NSPr/disc | stoichiometry N [2]: 10 NSPr/disc

B2: Peptide NSPrbio (NSPr labelled with a biotin group) (peptide)
peptide: B1 peptide
modifications: also: biotin group, position not given here
notes: source: synthetic peptide; bought: KareBay
stoichiometry N [3]: 10 NSPr/disc

B3: FhuA reconstituted in peptidisc (FhuA-NSPr) (complex)
chain: T2 sequence (looked up)
peptide: B1 peptide
notes: also called FhuA-peptidisc; FhuA peptidisc; copies: 1 + 10
binding result [4]: binds
